T1: EpCAM (UniProt P16422 24-265)
T1 construct: also called biotinylated EpCAM
T1 sequence (looked up): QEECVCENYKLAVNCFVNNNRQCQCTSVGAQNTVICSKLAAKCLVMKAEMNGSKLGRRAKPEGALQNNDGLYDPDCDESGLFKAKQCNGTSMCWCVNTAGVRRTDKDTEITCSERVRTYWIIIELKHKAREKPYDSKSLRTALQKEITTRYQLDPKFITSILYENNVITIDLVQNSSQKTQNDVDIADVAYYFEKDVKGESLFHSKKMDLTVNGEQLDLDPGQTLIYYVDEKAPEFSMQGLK

B1: AC_05293 (bispecific antibody)
heavy: not shown
light: DIQMTQSPSSLSASVGDRVTITCRASQSISSYLNWYQEKPGKAPKLLIYAASSLQSGVPSRFSGSGSGTDFTLTISSLQPEDFATYYCQQYGRNPPTFGQGTKLEIKRTVAAPSVFIFPPSDEQLKSGTASVVCYLNNFYPREAKVQWKVDNALQSGNSQESVTEQDSKDSTYSLWSTLTLSKADYEKHKVYACEVTHQGLSSPVTKSFNRGEC
chain: EVQLLEQSGAELVRPGTSVKISCKASGYAFTNYWLGWVKERPGHGLEWIGDIFPGSGNIHYNEKFKGKATLTADKSSSTAYMQLSSLTFEDSAVYFCARLRNWDEPMDYWGQGTTVTVSSASTKGPSVFPLAPSSKSTSGGTAALGCLVKDYFPEPVTVSWNSGALTSGVHTFPAVLQSSGLYSLSSVVEVPSSSLGTQTYICNVNHKPSNTKVDKKVEPKSC
notes: Chain H1 (role heavy) = IgG heavy chain-linker-Fab light chain; chain L1 (role light) = IgG light chain; chain H2 (role chain) = Fab heavy chain VH-CH1; also called wt bsAb (AC_05293); wild-type bsAb
B2: AM_4109-4134 (bispecific antibody)
heavy 1: not shown
light: B1 light
heavy 2: B1 chain with V191G
notes: AC_05293 backbone; also called double mutant I126A + V188G; copies: 2 + 2 + 2
B3: AM_4109-4133 (bispecific antibody)
heavy 1: not shown
light: B1 light
heavy 2: B1 chain with S186T
notes: AC_05293 backbone; also called double mutant I126A + S183T; copies: 2 + 2 + 2
B4: AM_4109-4126 (bispecific antibody)
heavy 1: not shown
light: B1 light
heavy 2: B1 chain with Y183I
notes: AC_05293 backbone; also called double mutant I126A + Y180I; copies: 2 + 2 + 2
B5: AM_4109-4131 (bispecific antibody)
heavy 1: not shown
light: B1 light
heavy 2: B1 chain with Y183W
notes: AC_05293 backbone; also called double mutant I126A + Y180W; copies: 2 + 2 + 2
B6: 4109 (bispecific antibody)
heavy 1: not shown
heavy 2: B1 chain
light: B1 light
notes: CD40 x EpCAM; also called single mutant I126A of AC_05293; copies: 2 + 2 + 2
B7: 4110 (bispecific antibody)
heavy 1: not shown
heavy 2: B1 chain
light: B1 light
notes: also called single mutant I126G of AC_05293; copies: 2 + 2 + 2
B8: AM_4117-4131 (bispecific antibody)
heavy 1: not shown
light: B1 light
heavy 2: B1 chain with Y183W
notes: AC_05293 backbone; also called double mutant T109P + Y180W; copies: 2 + 2 + 2
B9: AM_4120-4126 (bispecific antibody)
heavy 1: not shown
light: B1 light
heavy 2: B1 chain with Y183I
notes: AC_05293 backbone; also called double mutant A111V + Y180I; copies: 2 + 2 + 2
B10: AM_4120-4131 (bispecific antibody)
heavy 1: not shown
light: B1 light
heavy 2: B1 chain with Y183W
notes: AC_05293 backbone; also called double mutant A111V + Y180W; copies: 2 + 2 + 2
B11: AM_4115-4133 (bispecific antibody)
heavy 1: not shown
light: B1 light
heavy 2: B1 chain with S186T
notes: AC_05293 backbone; also called double mutant I126S + S183T; copies: 2 + 2 + 2
B12: AM_4117-4126 (bispecific antibody)
heavy 1: not shown
light: B1 light
heavy 2: B1 chain with Y183I
notes: AC_05293 backbone; also called double mutant T109P + Y180I; copies: 2 + 2 + 2
B13: AM_4110-4126 (bispecific antibody)
heavy 1: not shown
light: B1 light
heavy 2: B1 chain with Y183I
notes: AC_05293 backbone; also called double mutant I126G + Y180I; copies: 2 + 2 + 2
B14: AM_4120-4133 (bispecific antibody)
heavy 1: not shown
light: B1 light
heavy 2: B1 chain with S186T
notes: AC_05293 backbone; also called double mutant A111V + S183T; copies: 2 + 2 + 2
B15: AM_4117-4134 (bispecific antibody)
heavy 1: not shown
light: B1 light
heavy 2: B1 chain with V191G
notes: AC_05293 backbone; also called double mutant T109P + V188G; copies: 2 + 2 + 2
B16: AM_4110-4131 (bispecific antibody)
heavy 1: not shown
light: B1 light
heavy 2: B1 chain with Y183W
notes: AC_05293 backbone; also called double mutant I126G + Y180W; copies: 2 + 2 + 2
B17: AM_4110-4133 (bispecific antibody)
heavy 1: not shown
light: B1 light
heavy 2: B1 chain with S186T
notes: AC_05293 backbone; also called double mutant I126G + S183T; copies: 2 + 2 + 2
B18: AM_4117-4133 (bispecific antibody)
heavy 1: not shown
light: B1 light
heavy 2: B1 chain with S186T
notes: AC_05293 backbone; also called double mutant T109P + S183T; copies: 2 + 2 + 2
B19: AM_4110-4134 (bispecific antibody)
heavy 1: not shown
light: B1 light
heavy 2: B1 chain with V191G
notes: AC_05293 backbone; also called double mutant I126G + V188G; copies: 2 + 2 + 2
B20: AM_4115-4134 (bispecific antibody)
heavy 1: not shown
light: B1 light
heavy 2: B1 chain with V191G
notes: AC_05293 backbone; also called double mutant I126S + V188G; copies: 2 + 2 + 2
B21: AM_4120-4134 (bispecific antibody)
heavy 1: not shown
light: B1 light
heavy 2: B1 chain with V191G
notes: AC_05293 backbone; also called double mutant A111V + V188G; copies: 2 + 2 + 2

Changes are numbered by the printed parent chain. Names and notes keep the numbering of the source.

One experiment deals with T2, CD40 (UniProt P25942 21-193).
T2 construct: also called biotinylated CD40; CD40 antigen
T2 sequence (P25942 21-193 limits assumed): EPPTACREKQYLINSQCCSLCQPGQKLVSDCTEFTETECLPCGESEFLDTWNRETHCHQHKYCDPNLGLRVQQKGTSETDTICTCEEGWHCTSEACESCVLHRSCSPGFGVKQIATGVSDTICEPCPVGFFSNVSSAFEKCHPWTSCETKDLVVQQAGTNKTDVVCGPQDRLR
In words: dual ELISA: CD40 coated, bsAb titrated, biotinylated EpCAM + streptavidin-HRP; signal needs both targets.
Procedure: (§1) Dual ELISA Plates were coated with 0.5 μg/mL CD40 in PBS over night at 4° C. After washing in PBS/0.05% Tween 20 (PBST), the plates were blocked with PBS/2% BSA for at least 30 minutes at room temperature before being washed again. Samples serially diluted in PBS/0.5% BSA were then added and allowed to bind for at least 1 hour at room temperature. […] Dual complexed bsAb with CD40 and EpCAM were detected with HRP-labelled streptavidin. SuperSignal Pico Luminescent was used as substrate and luminescence signals were measured using Fluostar Optima.
The EC50 (read off the curve) is the concentration giving half of the maximal effect. On to B1, for which the “EC50 (read off the curve)” value was about 0.9 nM.
Same read-out and setting: the same measure for B2: about 0.9 nM; for B3: about 0.9 nM.
Still for that read-out and setting: next, B4: about 0.9 nM; B5: about 0.9 nM.

A further experiment concerns the target T2, CD40. Described as above. This is another data set of the same source.
Procedure: as §1
For the molecule B1, the “EC50 (read off the curve)” value was about 0.1 µg/mL.
B6: the “EC50 (read off the curve)” value is about 0.1 µg/mL.
Still for that read-out and setting: next, B7: about 0.1 µg/mL.

Another experiment deals with T1, EpCAM. In words: Octet BLI; biotinylated EpCAM on streptavidin sensor.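 Further: octet RED96 kinetics: 300 s association, then 300 s dissociation in 1x Kinetic buffer, buffer-blank referenced, Savitzky-Golay smoothed, fitted to a 1:1 Langmuir binding model.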 In general terms: In BLI a coated tip is dipped into the sample, and binding shifts an interference pattern.
Procedure: (§2) Kinetic measurements were performed using the Octet RED96 platform (ForteBIo). […] Association was followed for 300 seconds followed by dissociation in 1x Kinetic buffer for 300 seconds. Sensor tips were regenerated using 10 mM glycine, pH 1.7. Data generated were referenced by subtracting a parallel buffer blank, the baseline was aligned with the γ-axis, inter-step correlation by alignment against dissociation was performed and the data were smoothed by a Savitzky-Golay filter in the data analysis software (v.9.0.0.14). The processed data were fitted using a 1:1 Langmuir binding model with X2 as a measurement of fitting accuracy.
(§3) Binding affinities of all the variants were determined using Octet (Pall ForteBio).
The Kd is the constant that tells how readily two partners part at equilibrium. A high value points to lower affinity. One may read the koff as the rate constant with which the complex falls apart. Read a low koff as a long-lived complex. As a reminder, the kon is the rate constant with which the complex forms. A high value points to faster complex formation. In turn, B1 came in with an equilibrium dissociation constant (Kd) of 4.8 nM, a koff of 0.0012 s⁻¹ and a kon of 230000 M⁻¹ s⁻¹.
For B8, in that order: 4.5 nM, 0.0012 s⁻¹ and 260000 M⁻¹ s⁻¹.
For B2, in that order: 4.7 nM, 0.00098 s⁻¹ and 210000 M⁻¹ s⁻¹.
For B9, the Kd is 5.6 nM, the off-rate constant (koff) is 0.0013 s⁻¹ and the kon was 230000 M⁻¹ s⁻¹.
For B10, in that order: 5.3 nM, 0.0015 s⁻¹ and 280000 M⁻¹ s⁻¹.
Taken in the same sequence, the figures for B3 were 4.6 nM, 0.00092 s⁻¹ and 200000 M⁻¹ s⁻¹.
As to B11, binding was put at a Kd of 7 nM, the koff came to 0.0013 s⁻¹ and the kon stood at 180000 M⁻¹ s⁻¹.
For B12, in that order: 4.6 nM, 0.001 s⁻¹ and 220000 M⁻¹ s⁻¹.
Taken in the same sequence, the figures for B13 were 5.1 nM, 0.0009 s⁻¹ and 170000 M⁻¹ s⁻¹.
B4 displayed a Kd of 4.3 nM, a koff of 0.00077 s⁻¹ and an on-rate constant (kon) of 180000 M⁻¹ s⁻¹.
Taken in the same sequence, the figures for B14 were 5.7 nM, 0.0014 s⁻¹ and 240000 M⁻¹ s⁻¹.
Taken in the same sequence, the figures for B15 were 5.2 nM, 0.0012 s⁻¹ and 230000 M⁻¹ s⁻¹.
In turn, B16 returned a dissociation constant Kd of 4.7 nM, a koff of 0.00095 s⁻¹ and a kon of 200000 M⁻¹ s⁻¹.
For B17, in that order: 4.9 nM, 0.00096 s⁻¹ and 190000 M⁻¹ s⁻¹.
In turn, B5 displayed a Kd of 4.4 nM, a koff of 0.00081 s⁻¹ and an on-rate (kon) of 180000 M⁻¹ s⁻¹.
Taken in the same sequence, the figures for B18 were 4.6 nM, 0.0012 s⁻¹ and 260000 M⁻¹ s⁻¹.
Taken in the same sequence, the figures for B19 were 5.3 nM, 0.0011 s⁻¹ and 200000 M⁻¹ s⁻¹.
The molecule B20 returned a dissociation constant Kd of 6.9 nM, a koff of 0.0013 s⁻¹ and a kon of 190000 M⁻¹ s⁻¹.
For B21, in that order: 5.8 nM, 0.0014 s⁻¹ and 250000 M⁻¹ s⁻¹.

The target in a further experiment is T2, CD40. The experiment can be described thus: Octet BLI; biotinylated CD40 on streptavidin sensor.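 Further: octet RED96 biolayer interferometry, 300 s association then 300 s dissociation in kinetic buffer, buffer-blank referenced, fitted with a 1:1 Langmuir binding model.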
Procedure: as §2, §3
The molecule B1 displayed a Kd of 0.93 nM, an off-rate (koff) of 0.001 s⁻¹ and a kon of 1.1e+06 M⁻¹ s⁻¹.
For B8, in that order: 1 nM, 0.00066 s⁻¹ and 630000 M⁻¹ s⁻¹.
Taken in the same sequence, the figures for B2 were 0.83 nM, 0.00092 s⁻¹ and 1.1e+06 M⁻¹ s⁻¹.
Turning to B9, the equilibrium dissociation constant (Kd) came out at 0.86 nM, the dissociation rate constant (koff) was 0.001 s⁻¹ and the on-rate (kon) amounted to 1.2e+06 M⁻¹ s⁻¹.
With B10, the Kd worked out at 1.1 nM, the dissociation rate constant (koff) was 0.00097 s⁻¹ and the kon was 920000 M⁻¹ s⁻¹.
Molecule B3 returned a Kd of 0.73 nM, a koff of 0.001 s⁻¹ and a kon of 1.4e+06 M⁻¹ s⁻¹.
B11 showed a dissociation constant Kd of 1 nM, an off-rate constant (koff) of 0.0011 s⁻¹ and an on-rate constant (kon) of 1.1e+06 M⁻¹ s⁻¹.
Taken in the same sequence, the figures for B12 were 1.2 nM, 0.00048 s⁻¹ and 400000 M⁻¹ s⁻¹.
For B13, in that order: 1.5 nM, 0.00051 s⁻¹ and 350000 M⁻¹ s⁻¹.
Taken in the same sequence, the figures for B4 were 1.2 nM, 0.0006 s⁻¹ and 480000 M⁻¹ s⁻¹.
B14 yielded a Kd of 0.9 nM, a koff of 0.0011 s⁻¹ and an association rate constant (kon) of 1.2e+06 M⁻¹ s⁻¹.
With B15, the Kd is 0.97 nM, the dissociation rate constant (koff) stood at 0.00072 s⁻¹ and the kon worked out at 740000 M⁻¹ s⁻¹.
For B16, in that order: 1.2 nM, 0.00056 s⁻¹ and 450000 M⁻¹ s⁻¹.
For B17, in that order: 1.1 nM, 0.00075 s⁻¹ and 680000 M⁻¹ s⁻¹.
Turning to B5, binding was put at a Kd of 0.89 nM, the koff is 0.00072 s⁻¹ and the kon came to 800000 M⁻¹ s⁻¹.
Taken in the same sequence, the figures for B18 were 0.93 nM, 0.0007 s⁻¹ and 750000 M⁻¹ s⁻¹.
Taken in the same sequence, the figures for B19 were 0.88 nM, 0.00075 s⁻¹ and 860000 M⁻¹ s⁻¹.
Taken in the same sequence, the figures for B20 were 1.1 nM, 0.001 s⁻¹ and 930000 M⁻¹ s⁻¹.
The molecule B21 gave a Kd of 0.91 nM, a dissociation rate constant (koff) of 0.0011 s⁻¹ and an on-rate (kon) of 1.2e+06 M⁻¹ s⁻¹.

For the origin of these results see patent US20260001961A1 (ALLIGATOR BIOSCIENCE, published 2026).
